Source: paper PMC5036782 (Biophysics, 2011)

Tests used:
Test in all cases: NMR titration; 1H-13C HSQC of selectively [13C]-methyl-Met labelled CaM or variant, Ca2+-bound form compared with the complex with skMLCKp; 20 mM phosphate, 100 mM KCl, 10 mM CaCl2, pH 7.0, 25°C, about 0.6 mM protein, 800 MHz
Conditions in all cases: both partners purified
[1] = target: intact chicken calmodulin (CCM0) (chicken, UniProt P62149 1-149)
[2] = target: CCMΔ5, chicken calmodulin lacking the last five residues (M144 to K148) (chicken, UniProt P62149 1-144)
[3] = target: CCMΔ4, chicken calmodulin lacking the last four residues (M145 to K148) (chicken, UniProt P62149 1-145)

Measured: binding result

KRRWKKNFIAVSAANRFKKISSSGAL
binds: all assays above
